Source: patent EP4786492A1 (Simcere Zaiming Pharmaceutical Co., Ltd., dated 2026)

T1: human DLL3 endogenously expressed on SHP77 and NCI-H82 cells (human, UniProt Q9NYJ7 27-618)
T1 construct: whole, on cells; cells endogenously expressing DLL3; also called SHP77 cells; SHP-77 cells
T1 sequence (looked up): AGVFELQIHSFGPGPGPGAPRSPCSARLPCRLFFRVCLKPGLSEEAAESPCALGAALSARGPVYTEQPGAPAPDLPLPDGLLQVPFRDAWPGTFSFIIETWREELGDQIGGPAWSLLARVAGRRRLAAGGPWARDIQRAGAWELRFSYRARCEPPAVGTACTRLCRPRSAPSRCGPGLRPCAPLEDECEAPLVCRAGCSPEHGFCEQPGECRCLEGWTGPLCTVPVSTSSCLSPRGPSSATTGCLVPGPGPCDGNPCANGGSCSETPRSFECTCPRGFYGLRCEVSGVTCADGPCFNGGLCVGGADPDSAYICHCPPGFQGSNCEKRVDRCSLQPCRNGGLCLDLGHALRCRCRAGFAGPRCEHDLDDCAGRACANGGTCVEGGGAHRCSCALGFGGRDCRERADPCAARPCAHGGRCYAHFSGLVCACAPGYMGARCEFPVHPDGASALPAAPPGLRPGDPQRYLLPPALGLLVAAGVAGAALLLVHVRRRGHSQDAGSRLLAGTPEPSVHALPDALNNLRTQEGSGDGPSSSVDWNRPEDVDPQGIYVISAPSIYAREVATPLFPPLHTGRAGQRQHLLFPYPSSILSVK

T2: mouse DLL3 on CHO K1-mDLL3 cells (mouse, UniProt O88516 33-490)
T2 construct: also called mouse DLL3 recombinant cell line
T2 sequence: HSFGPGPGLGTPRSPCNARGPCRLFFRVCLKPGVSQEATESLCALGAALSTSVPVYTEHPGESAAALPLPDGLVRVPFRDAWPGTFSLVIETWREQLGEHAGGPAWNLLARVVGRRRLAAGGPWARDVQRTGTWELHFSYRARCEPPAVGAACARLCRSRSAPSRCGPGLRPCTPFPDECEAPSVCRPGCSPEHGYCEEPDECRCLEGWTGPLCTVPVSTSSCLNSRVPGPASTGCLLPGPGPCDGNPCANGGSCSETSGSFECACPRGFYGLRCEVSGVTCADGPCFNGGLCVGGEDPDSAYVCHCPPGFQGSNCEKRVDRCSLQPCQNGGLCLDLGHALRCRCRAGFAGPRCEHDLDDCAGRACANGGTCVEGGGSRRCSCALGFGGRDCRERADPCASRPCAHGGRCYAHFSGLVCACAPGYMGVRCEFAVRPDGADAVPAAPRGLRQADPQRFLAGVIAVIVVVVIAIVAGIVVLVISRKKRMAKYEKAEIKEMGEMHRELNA

T3: human DLL3-his protein (human, UniProt Q9NYJ7 27-492)
T3 construct: also called human DLL3 protein; DLL3 antigen protein; not shown: His tag
T3 sequence: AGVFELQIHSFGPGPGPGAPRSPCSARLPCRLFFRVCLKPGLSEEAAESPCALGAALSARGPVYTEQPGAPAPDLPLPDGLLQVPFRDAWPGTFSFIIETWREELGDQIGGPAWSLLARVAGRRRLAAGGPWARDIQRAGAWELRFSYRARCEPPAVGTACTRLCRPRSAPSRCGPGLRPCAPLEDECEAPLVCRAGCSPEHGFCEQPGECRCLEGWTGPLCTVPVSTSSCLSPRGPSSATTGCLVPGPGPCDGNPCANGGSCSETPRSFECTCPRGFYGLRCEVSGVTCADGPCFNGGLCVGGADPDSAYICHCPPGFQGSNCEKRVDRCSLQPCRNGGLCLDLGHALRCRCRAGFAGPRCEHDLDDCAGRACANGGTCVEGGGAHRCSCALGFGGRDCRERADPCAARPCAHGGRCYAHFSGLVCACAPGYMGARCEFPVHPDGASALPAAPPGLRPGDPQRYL

T4: human DLL3 on CHO-K1 hDLL3 cells (human, UniProt Q9NYJ7 27-492)
T4 construct: also called human DLL3 recombinant cell line
T4 sequence: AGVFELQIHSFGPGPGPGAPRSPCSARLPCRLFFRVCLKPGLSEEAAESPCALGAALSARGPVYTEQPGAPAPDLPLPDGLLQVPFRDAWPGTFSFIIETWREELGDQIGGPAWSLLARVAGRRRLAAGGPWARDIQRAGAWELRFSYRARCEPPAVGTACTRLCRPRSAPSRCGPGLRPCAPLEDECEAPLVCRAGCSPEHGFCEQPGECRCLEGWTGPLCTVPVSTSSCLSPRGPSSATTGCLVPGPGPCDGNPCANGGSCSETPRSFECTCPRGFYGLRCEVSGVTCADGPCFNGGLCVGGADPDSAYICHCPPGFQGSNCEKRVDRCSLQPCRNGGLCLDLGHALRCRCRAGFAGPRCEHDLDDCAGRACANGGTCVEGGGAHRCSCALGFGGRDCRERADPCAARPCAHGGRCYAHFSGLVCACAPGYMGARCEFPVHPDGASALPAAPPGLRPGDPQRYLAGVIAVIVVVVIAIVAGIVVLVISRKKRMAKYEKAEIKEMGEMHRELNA

T5: monkey DLL3 on CHO K1-cyno DLL3 cells (cynomolgus monkey)
T5 construct: also called monkey DLL3 recombinant cell line
T5 chain: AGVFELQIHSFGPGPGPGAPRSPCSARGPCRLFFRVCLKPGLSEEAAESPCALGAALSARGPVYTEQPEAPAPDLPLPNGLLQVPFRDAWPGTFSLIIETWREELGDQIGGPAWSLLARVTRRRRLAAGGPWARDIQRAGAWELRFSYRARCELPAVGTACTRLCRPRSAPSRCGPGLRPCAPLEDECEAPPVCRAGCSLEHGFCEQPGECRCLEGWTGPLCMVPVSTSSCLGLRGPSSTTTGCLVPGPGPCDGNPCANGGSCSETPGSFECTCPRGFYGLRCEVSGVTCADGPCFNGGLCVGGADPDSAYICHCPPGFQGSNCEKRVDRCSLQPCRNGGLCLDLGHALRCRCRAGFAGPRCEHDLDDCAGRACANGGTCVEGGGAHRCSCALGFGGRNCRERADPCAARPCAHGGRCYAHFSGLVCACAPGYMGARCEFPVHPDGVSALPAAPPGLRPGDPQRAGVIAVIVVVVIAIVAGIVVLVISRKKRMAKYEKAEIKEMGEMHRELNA


Legend:
[1] = biological target: T1, human DLL3 endogenously expressed on …; assay: FACS, SHP77 and NCI-H82 cells
[2] = biological target: T2, mouse DLL3 on CHO K1-mDLL3 cells; assay: FACS, CHO K1-mDLL3 cells
human DLL3-his protein = biological target: T3, human DLL3-his protein; assay: ELISA
[3] = biological target: T4, human DLL3 on CHO-K1 hDLL3 cells; assay: FACS, CHO-K1 hDLL3 cells
[4] = biological target: T5, monkey DLL3 on CHO K1-cyno DLL3 cells; assay: FACS, CHO K1-cyno DLL3 cells

Binder	binding result [1]	binding result [2]	binding result (human DLL3-his protein)	binding result [3]	binding result [4]
Hab013VL2VH2a-hFc (Fc fusion, humanized mab013, VL-linker-VH-human IgG1 Fc; not shown: linker; human IgG1 Fc fragment) scFv (part 1 of 2): EIVLTQSPATLSLSPGERATLSCRASKSVSTSGFSYMHWYQQKPGQPPRLLIYLASNLESGIPARFSGSGSGTDFTLTISSLEPEDFAVYYCQHSRELPFTFGQGTKLEIK scFv (part 2 of 2): EVQLVQSGAEVKKPGSSVKVSCKASGYAFSNYWINWVRQAPGQGLEWMGQINPGDGDTIYNSKFKGRVTITADKSTSTAYMELSSLRSEDTAVYYCEREGRNYGDFAYWGQGTTVTVSS	binds	binds	binds	binds	
Hab006VL4VH1-hFc (Fc fusion, humanized mab006, VL-linker-VH-human IgG1 Fc; also called Hab006VL4VL1-hFc; not shown: linker; human IgG1 Fc fragment) scFv (part 1 of 2): DIVMTQSPDSLAVSLGERATINCRATKSISKYLAWYQQKPGQTNKLLIFSGSTLQSGVPDRFSGSGSGTDFTLTISSLQAEDVAVYYCQQHHEYPYTFGGGTKVEIK scFv (part 2 of 2): EVQLVQSGAEVKKPGASVKVSCKASGYTFTSYWMHWVRQAPGQRLEWMGVIDPSDSLANYNQEFKGRVTITVDTSASTAYMELSSLRSEDTAVYYCARDSTVVAPMDYWGQGTTVTVSS	binds	binds	binds	binds	binds
Hab014VL1VH2-hFc (Fc fusion, humanized mab014, VL-linker-VH-human IgG1 Fc; not shown: linker; human IgG1 Fc fragment) scFv (part 1 of 2): DIQMTQSPSSLSASVGDRVTITCKASEDIYNRLAWYQQKPGKVPKLLISGATSLETGVPSRFSGSGSGTDFTLTISSLQPEDVATYYCQQYWSLPWTFGGGTKVEIK scFv (part 2 of 2): EVQLVQSGAEVKKPGASVKVSCKASGYTFTDYYMNWVRQAPGQRLEWMGDINPNHGDTGYNQKFTGRVTLTVDKSASTAYMELSSLRSEDTAVYYCARNFFYYGTTYGWYFDVWGQGTTVTVSS	binds	binds	binds	binds	binds
Hab009VL1aVH1-hFc (Fc fusion, humanized mab009, VL-linker-VH-human IgG1 Fc; not shown: linker; human IgG1 Fc fragment) scFv (part 1 of 2): DIVMTQSPLSLPVTPGEPASISCRASQTISDYLHWYLQKPGQSPQLLIKYASQSISGVPDRFSGSGSGSDFTLKISRVEAEDVGVYYCQQGHSFPLTFGQGTKLEIK scFv (part 2 of 2): EVQLVQSGAEVKKPGASVKVSCKASGYTFTSYWMHWVRQAPGQRLEWMGTIYPGNSDTRYNQKFKDRVTITADTSASTAYMELSSLRSEDTAVYYCTRSYDYGDLDYWGQGTTVTVSS	binds	binds	binds	binds	binds

Other lines, results leading:

binding result [1]	binding result [2]	binding result (human DLL3-his protein)	binding result [3]	binding result [4]	Binder
binds	binds	binds	binds	binds	Hab006VL1VH4-hFc (Fc fusion, humanized mab006, VL-linker-VH-human IgG1 Fc; also called Hab006VL1VL4-hFc; not shown: linker; human IgG1 Fc fragment) scFv (part 1 of 2): DIQMTQSPSSLSASVGDRVTITCRATKSISKYLAWYQQKPGKAPKLLIFSGSTLQSGVPSRFSGSGSGTDFTLTISSLQPEDFATYYCQQHHEYPYTFGGGTKVEIK scFv (part 2 of 2): EVQLVQSGAEVKKPGASVKVSCKASGYTFTSYWMHWVRQAPGQRLEWMGVIDPSDSLANYNQEFKGRVTLTVDTSSSTAYMELSSLRSEDTAVYYCARDSTVVAPMDYWGQGTTVTVSS
binds	binds	binds	binds	binds	Hab006VL4VH2-hFc (Fc fusion, humanized mab006, VL-linker-VH-human IgG1 Fc; also called Hab006VL4VL2-hFc; not shown: linker; human IgG1 Fc fragment) scFv (part 1 of 2): DIVMTQSPDSLAVSLGERATINCRATKSISKYLAWYQQKPGQTNKLLIFSGSTLQSGVPDRFSGSGSGTDFTLTISSLQAEDVAVYYCQQHHEYPYTFGGGTKVEIK scFv (part 2 of 2): EVQLVQSGAEVKKPGASVKVSCKASGYTFTSYWMHWVRQAPGQRLEWMGVIDPSDSLANYNQEFKGRVTLTVDTSASTAYMELSSLRSEDTAVYYCARDSTVVAPMDYWGQGTTVTVSS
binds	binds	binds	binds	binds	Hab014VL2VH1-hFc (Fc fusion, humanized mab014, VL-linker-VH-human IgG1 Fc; not shown: linker; human IgG1 Fc fragment) scFv (part 1 of 2): DIQMTQSPSSLSASVGDRVTITCKASEDIYNRLAWYQQKPGKVPKLLISGATSLETGVPSRFSGSGSGKDFTLTISSLQPEDVATYYCQQYWSLPWTFGGGTKVEIK scFv (part 2 of 2): EVQLVQSGAEVKKPGASVKVSCKASGYTFTDYYMNWVRQAPGQRLEWMGDINPNHGDTGYNQKFTGRVTITVDKSASTAYMELSSLRSEDTAVYYCARNFFYYGTTYGWYFDVWGQGTTVTVSS
binds	binds	binds	binds	binds	Hab009VL2aVH1-hFc (Fc fusion, humanized mab009, VL-linker-VH-human IgG1 Fc; not shown: linker; human IgG1 Fc fragment) scFv (part 1 of 2): DIVMTQSPLSLPVTPGEPASISCRASQTISDYLHWYLQKPGQSPRLLIKYASQSISGVPDRFSGSGSGTDFTLKISRVEAEDVGVYYCQQGHSFPLTFGQGTKLEIK scFv (part 2 of 2): EVQLVQSGAEVKKPGASVKVSCKASGYTFTSYWMHWVRQAPGQRLEWMGTIYPGNSDTRYNQKFKDRVTITADTSASTAYMELSSLRSEDTAVYYCTRSYDYGDLDYWGQGTTVTVSS
binds	binds	binds	binds	binds	Hab009VL3aVH1-hFc (Fc fusion, humanized mab009, VL-linker-VH-human IgG1 Fc; not shown: linker; human IgG1 Fc fragment) scFv (part 1 of 2): DIVMTQSPLSLPVTPGEPASISCRASQTISDYLHWYLQKSHQSPQLLIKYASQSISGVPDRFSGSGSGTDFTLKISRVEAEDVGVYYCQQGHSFPLTFGQGTKLEIK scFv (part 2 of 2): EVQLVQSGAEVKKPGASVKVSCKASGYTFTSYWMHWVRQAPGQRLEWMGTIYPGNSDTRYNQKFKDRVTITADTSASTAYMELSSLRSEDTAVYYCTRSYDYGDLDYWGQGTTVTVSS
